{"source": "paper PMC2670837", "about": "“Staphylococcus aureus immunodominant surface antigen B is a cell-surface associated nucleic acid binding protein”", "key": {"[1]": {"biological_target": "T1, IsaB (recombinant, untagged) (Staphylococcus aureus 10833) (UniProt Q9LAB5)", "T1 sequence": "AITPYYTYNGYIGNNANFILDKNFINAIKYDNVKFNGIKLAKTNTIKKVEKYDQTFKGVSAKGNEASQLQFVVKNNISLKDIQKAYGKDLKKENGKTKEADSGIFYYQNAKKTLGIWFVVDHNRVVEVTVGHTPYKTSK", "experiment": "SPR", "details": "EMSA: 20 mM HEPES, 1 mM DTT, 20 mM KCl, 200 ug/ml BSA, 10% glycerol, room temperature, 10 min, SPR: 0.33x HBS-EP + non-specific binding inhibitor, SA chip …"}, "[2]": {"biological_target": "T2, IsaB (recombinant, untagged) (Staphylococcus aureus 10833, UniProt Q9LAB5 37-175)", "T2 sequence": "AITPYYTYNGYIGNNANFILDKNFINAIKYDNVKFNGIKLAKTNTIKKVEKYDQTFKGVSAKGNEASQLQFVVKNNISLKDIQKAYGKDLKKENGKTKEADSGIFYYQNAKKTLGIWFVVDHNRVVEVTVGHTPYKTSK", "experiment": "EMSA; 240 pmol-3.84 nmol IsaB; shift abolished by salmon sperm DNA or yeast tRNA, not by dNTPs; EMSA: 20 mM HEPES, 1 mM DTT, 20 mM KCl, 200 ug/ml BSA, 10% glycerol, room temperature, 10 min; SPR: 0.33x HBS-EP + non-specific binding inhibitor, SA chip, Biacore T100; pull-down: 10 mM HEPES, 60 mM KCl, 4 mM MgCl2, 0.1 mM EDTA, 0.1 mg/ml BSA, 0.25 mM DTT, on ice; pH not stated", "details": "protein: recombinant; label: Alexa Fluor 594 (ULYSIS)"}}, "data": [{"molecule": "ATTGVGTTATCAATAATCTTA / GGTGGGATCCTTGAAGGATAAGATTA", "values": [{"measurement": "Kd (M (unit not given))", "setting": "[1]", "result": "8.1e-09"}]}, {"molecule": "ATTGVGTTATCAATAATCTTA [BioticaPRO (ssDNA SPR bait; identity inferred)]", "values": [{"measurement": "Kd (M (unit not given))", "setting": "[1]", "result": "1.08e-08"}]}, {"molecule": "TNGUGCAAUUACAAAUAUUUCCGUUUAAUUAUAACAACAAUCUAUUGCA [WTUTR(RNA) (RNA SPR bait; identity inferred)]", "values": [{"measurement": "Kd (M (unit not given))", "setting": "[1]; ribonucleotides with 3' terminal deoxy GCA", "result": "1.65e-08"}]}, {"molecule": "GUUUAAUUAUAACAACAAUCUAUUGCA (ssRNA)", "note": "[icaUTR6]", "values": [{"measurement": "binding result", "setting": "[2]", "result": "binds"}]}]}
